Blank lines part the entries; values can stand above or below the binder they belong to.
Key:
NRP1-b1b2 = target: T1, NRP1-b1b2 (UniProt O14786 273-586, limits assumed); assay: ELISA, coated antigen printed as NRP1
T1 construct: domain: b1b2; Negative control antigen
T1 sequence (looked up): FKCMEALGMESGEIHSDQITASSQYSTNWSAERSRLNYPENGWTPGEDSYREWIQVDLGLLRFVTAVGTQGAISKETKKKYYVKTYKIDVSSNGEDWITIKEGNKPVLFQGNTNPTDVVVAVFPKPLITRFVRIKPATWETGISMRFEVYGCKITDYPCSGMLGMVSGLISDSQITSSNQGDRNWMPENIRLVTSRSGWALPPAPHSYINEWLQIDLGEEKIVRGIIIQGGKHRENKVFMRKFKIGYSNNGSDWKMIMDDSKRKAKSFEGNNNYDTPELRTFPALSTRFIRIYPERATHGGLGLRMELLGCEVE

KRS fragment (1-207aa) [1] = target: T2, KRS fragment (1-207aa) (human, UniProt Q15046 1-207); assay: SPR (Biacore T200), antibody immobilised on CM5, KRS 1-207 flowed at 4.8 to 1250 nM
T2 construct: range 1-207; also called purified protein of the KRS fragment (1-207aa); KRS protein

KRS fragment (1-207aa) [2] = target: T2, KRS fragment (1-207aa); assay: SPR, Biacore T200, antibody amine-coupled on CM5, KRS (1-207aa) as analyte, 25 C
KRS epitope peptide F4 = target: T3, KRS epitope peptide F4; assay: SPR, Biacore T200, antibody on the chip, peptide F4 as analyte
T3 peptide: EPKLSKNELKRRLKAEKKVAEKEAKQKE
Procedure: The SPR experiment was performed using a Biacore T200 (GE Healthcare) equipped with a Series S sensor chip CM5 (GE Healthcare) at 25° C. After the antibody was immobilized on the chip using an amine coupling kit (GE Healthcare), the antigen was diluted 4 times in PBS solution in the range of 4.8 nM-1250 nM and flowed for 60 seconds. Thereafter, PBS was flowed for 300 seconds. The obtained data was analyzed with Biacore T200 Evaluation software v2.0 (GE Healthcare).
After that, PBS was flowed for 2400 seconds. The obtained data was analyzed with Biacore T200 Evaluation software v2.0 (GE Healthcare).

T2 sequence (Q15046 1-207 limits assumed): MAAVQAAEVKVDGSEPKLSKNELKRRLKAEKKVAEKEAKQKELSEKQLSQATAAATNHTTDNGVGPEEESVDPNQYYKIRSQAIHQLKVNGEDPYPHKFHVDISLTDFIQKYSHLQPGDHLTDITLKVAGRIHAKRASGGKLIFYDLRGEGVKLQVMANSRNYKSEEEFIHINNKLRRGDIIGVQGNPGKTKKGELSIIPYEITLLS

- binding result (NRP1-b1b2): no binding (tested: 10 nM)
B1: N3-8 antibody (IgG) (antibody)
heavy: not shown
light: QSVLTQPPSASGTPGQRVTISCTGSSSNIGSNYVTWYQQLPGTAPKLLIYDNSNRPSGVPDRFSGSKSGTSASLAISGLQSEDEADYYCSSFSDELGAYVFGGGTKLTVLRTVAAPSVFIFPPSDEQLKSGTASVVCLLNNFYPREAKVQWKVDNALQSGNSQESVTEQDSKDSTYSLSSTLTLSKADYEKHKVYACEVTHQGLSSPVTKSFNRGEC
notes: Whole IgG1; also called N3-8 IgG

- koff (KRS fragment (1-207aa) [1]): 0.0206 s⁻¹
- kon (KRS fragment (1-207aa) [1]): 664000 M⁻¹ s⁻¹
- Kd (KRS fragment (1-207aa) [2]): 31 nM
B2: N3-1 antibody (IgG) (antibody)
chain 1: EVQLLESGGGLVQPGGSLRLSCAASGFTFSSYDMSWVRQAPGKGLEWVSAISYDNGNTYYADSVKGRFTISRDNSKNTLYLQMNSLRAEDTAVYYSARMALDFDYWGQGTLVTVSS
chain 2: QSVLTQPPSASGTPGQRVTISCTGSSSNIGSNYVTWYQQLPGTAPKLLIYDNSNRPSGVPDRFSGSKSGTSASLAISGLQSEDEADYYCASFSDELGAYVFGGGTKLTVL

- Kd (KRS epitope peptide F4): 10.1 nM
- koff (KRS epitope peptide F4): 0.0009 s⁻¹
- kon (KRS epitope peptide F4): 89500 M⁻¹ s⁻¹
B3: N3-8-4 antibody (IgG) (antibody, V domains shown)
VH: EVQLLESGGGLVQPGGSLRLSCAASGFTFSSYDMSWVRQAPGKGLEWVSAISPYSGRIYYADSVKGRFTISRDNSKNTLYLQMNSLRAEDTAVYYCARLALDFDYWGQGTLVTVSS
VL: QSVLTQPPSASGTPGQRVTISCTGSSSNIGSNYVTWYQQLPGTAPKLLIYDNSNRPSGVPDRFSGSKSGTSASLAISGLQSEDEADYYCSSFSDELGAYVFGGGTKLTVLG
notes: Whole IgG1, N3-8 derivative; also called N3-8-4 IgG
